To fix the notation:
B1: 243F6D2 (antibody, V domains shown)
VH: QAYLQQSGAELVRSGASVKMSCRASGYTFTSHNMHWVKQTPGQGLEWIGYIYPGNGGTYYNQKFKGKATLTADTSSSTAYMQISSLTSEDSAVYFCARDYYGNSFVYWGQGTLVTVSA
VL: DVVMTQSPSSLTEKTGEKVSMSCKSSQSLLNSGNQKNYLTWYQQKPGQPPKLLIYWASTRESGVPDRFTGSGSGTDFTLTISSLQTEDLAVYYCQNNYRYPFTFGAGTKLELK
B2: 244A1B8 (antibody, V domains shown)
VH: B1 VH with R23K, M34I, G57A, T58P, Y59N, K65R
VL: B1 VL with V2I, T15A, L84V, T86A, N97D
B3: 248E6A7 (antibody, V domains shown)
VH: B1 VH with G57N, G66V, S77N, S84N, A97V
VL: B1 VL with S20T, S22T, T40A, T69I, R99M
B4: 246B5F2 (antibody, IgM, V domains shown)
VH: EVMLVESGGGLMKPGGSLKLSCAASEFTFSNYAMSWVRQTPEKRLEWVATISSGRSSTYYPDSVKGRFTISRDNAKNTLYLQMSSLRSEDTAMYYCAGLGRGNAMEYWGQGTSVTVSS
VL: DIVMTQSPSSLTVTAGEKVTLSCKSSQSLLNSGNQKNYLTWYQQKPGQPPKLLIYWASTRESGVPDRFTGSGSGTDFILTINSVQAEDLAVYYCQNAYSYPFTFGSGTKLEIK
B5: 280F3B6 (antibody, V domains shown)
VH: B1 VH with R23K, Y59N, A97T, V106A
VL: B1 VL with V2I, T15A, K18R, L30F, L84V, T86A, N97D, R99W
notes: mouse hybridoma mAb
B6: 232C5E3 (antibody, V domains shown)
VH: B1 VH with R23K, M34I, V37I, Q43K, Y59N, G66A, V106A
VL: B1 VL with V2I, V3M, K14T, T15A, T69S, L84V, T86A, N97G, Y100F
notes: mouse hybridoma mAb
B7: 250F4G1 (antibody, V domains shown)
VH: B1 VH with R23K, G57R, Y59N, A97T, V106A
VL: B1 VL with V2I, T15V, K18R, L30F, L84V, T86A, N97D, R99W
notes: mouse hybridoma mAb
B8: 257G7B9 (antibody, V domains shown)
VH: B1 VH with R23K, M34L, G57N, Y59N, A97T, V106A
VL: B1 VL with V2I, T15A, K18R, L30F, L84V, T86A, R99W, Y100F
notes: mouse hybridoma mAb
B9: 234E1F12 (antibody, V domains shown)
VH: B1 VH with R23K, G42R, G57D, Y59N, A97T, V106A
VL: B1 VL with V2I, T15A, K18R, L30F, L84V, T86A, N97A, R99W
notes: mouse hybridoma mAb
B10: 240D6F5 (antibody, V domains shown)
VH: B1 VH with R23K, Y59N, T74P, S84N, A97T, V106A
VL: B1 VL with V2I, T15A, K18R, L30F, L84V, T86A, N97D
notes: mouse hybridoma mAb
B11: 243B4F2 (antibody, V domains shown)
VH: B1 VH with R23K, M34L, G57N, Y59N, A97T, V106A
VL: B1 VL with V2I, T15A, K18R, L30F, L84V, T86A, R99W, Y100F
notes: mouse hybridoma mAb
B12: 250F4G4 (antibody, V domains shown)
VH: B1 VH with R23K, G57R, Y59N, A97T, V106A
VL: B1 VL with V2I, T15V, K18R, L30F, L84V, T86A, N97D, R99W
notes: mouse hybridoma mAb
B13: 234C9G5 (antibody, V domains shown)
VH: B1 VH with R23K, T28A, Y52S, G57Y, Y59N, K65R, S84G, A97T, V106A
VL: B1 VL with V2I, T15A, K18R, L30F, L84V, T86A, R99W, Y100F
notes: mouse hybridoma mAb
B14: 243F6D2 (antibody, V domains shown)
VH: B1 VH
VL: B1 VL
notes: mouse hybridoma mAb
B15: 242H12D6 (antibody, V domains shown)
VH: B1 VH with R23K, Y59N, S84N, A97T, V106A
VL: B1 VL with V2I, T15A, K18R, L30F, L84V, T86A, N97D
notes: mouse hybridoma mAb
B16: 244A1B8 (antibody, V domains shown)
VH: B1 VH with R23K, M34I, G57A, T58P, Y59N, K65R
VL: B1 VL with V2I, T15A, L84V, T86A, N97D
notes: mouse hybridoma mAb
B17: 243B4F7 (antibody, V domains shown)
VH: B1 VH with R23K, M34L, G57N, Y59N, A97T, V106A
VL: B1 VL with V2I, T15A, K18R, L30F, L84V, T86A, R99W, Y100F
notes: mouse hybridoma mAb
B18: 257B1G9 (antibody, V domains shown)
VH: B1 VH with R23K, Y59N, A97T, V106A
VL: B1 VL with V2I, K14R, T15A, K18R, L30F, L84V, T86A, N97D
notes: mouse hybridoma mAb
B19: 252F1B10 (antibody, V domains shown)
VH: B1 VH with R23K, Y59N, S84N, A97T, V106A
VL: B1 VL with V2I, T15A, K18R, L30F, L84V, T86A, N97D
notes: mouse hybridoma mAb
B20: 258D11C4 (antibody, V domains shown)
VH: B1 VH with R23K, T30S, Y59N, A97T, V106A
VL: B1 VL with V2I, T15A, K18R, L30F, E61Q, L84V, T86A, N97D, R99W, Y100F
notes: mouse hybridoma mAb
B21: 259C6F4 (antibody, V domains shown)
VH: B1 VH with R23K, T30S, M34I, G57D, Y59N
VL: B1 VL with V2I, T5I, T15A, L84V, T86A, N97A, Y100F
notes: mouse hybridoma mAb
B22: 256C3D3 (antibody, V domains shown)
VH: B1 VH with R23K, T28A, Y52S, G57Y, Y59N, K65R, S84G, A97T, V106A
VL: B1 VL with V2I, T15A, K18R, L30F, L84V, T86A, R99W, Y100F
notes: mouse hybridoma mAb
B23: 232D7C8 (antibody, V domains shown)
VH: B1 VH with R23K, Y59N, Y101F, V106A
VL: DILMTQSPSSLTATAGEKVSMSCKSSQSLFNSGNQRNYLTWYQQRPGQPPKLLIYWASTRESGVPDRFTGSGSGTDFTLTISSVQAEDLAVYYCQNDYRYPFTFGAGTKLELK
notes: mouse hybridoma mAb
B24: 257F1E11 (antibody, V domains shown)
VH: B1 VH with R23K, M34I, G42R, Y59N, A97T, V106A
VL: B23 VL with L3V, A13E, T14K, K18R, R36K, R45K, V91I, R99W
notes: mouse hybridoma mAb
B25: 231H4G11 (antibody, V domains shown)
VH: B1 VH with R23K, M34I, Y52S, G57Y, Y59N, K65R, A97T, V106A
VL: B1 VL with V2I, T15A, K18R, L30F, N34S, T69S, L84V, T86A, R99W, Y100F
notes: mouse hybridoma mAb
B26: 257G7F7 (antibody, V domains shown)
VH: B1 VH with R23K, M34L, G57N, Y59N, A97T, V106A
VL: B1 VL with V2I, T15A, K18R, L30F, L84V, T86A, R99W, Y100F
notes: mouse hybridoma mAb
B27: 233D5E5 (antibody, V domains shown)
VH: B1 VH with R23K, G42R, G57D, Y59N, A97T, V106A
VL: B23 VL with L3V, A13E, T14K, K18R, R36K, R45K, D97A, R99W
notes: mouse hybridoma mAb
B28: 239H12G9 (antibody, V domains shown)
VH: B1 VH with R23K, M34I, G57A, T58P, Y59N, K65R
VL: B1 VL with V2I, T15A, L84V, T86A, N97D
notes: mouse hybridoma mAb
B29: 235A10C9 (antibody, V domains shown)
VH: B1 VH with R23K, T30A, G56S, Y59K, K65T, S84T, V106A
VL: B1 VL with V2I, T15A, S22R, L84V, T86A, E87D, N97D, R99M, Y100F
notes: mouse hybridoma mAb
B30: 200A4H8 (antibody, V domains shown)
VH: QVQLKQSGPGLVQPSQSLSITCTVSGFSLTRYGVHWVRQSPGKGLEWLGVIWSGGNTDYNAAFISRLNIRKDNSKSQVFFKMNSLKPNDTAIYYCARAAYFGNSFDYWGQGTTLTVSS
VL: B4 VL with T12P, L21M, E61D, I78T, N82S, A97N, S99I, F102L, S106A, I112L
notes: mouse hybridoma mAb
B31: 201F4H6 (antibody, V domains shown)
VH: QVQLKESGPGLVAPSQSLSITCTVSGFSLTSYGVSWVRQPPGKGLECLGVIWAGGNTNYNSALMSRLSISKDKSKSQVFLKMNSLQTDDTAMYYCARVYYGNAMDYWGQGTSVTVSS
VL: B4 VL with L21M, N37S, K45R, I78T, N82S, Y93F, A97V, S99F, Y100F, I112T
notes: mouse hybridoma mAb
B32: 181C7B2 (antibody, V domains shown)
VH: B30 VH with R31Y, S53R, N68S, R70N, K86Q, F101Y, S104C
VL: B4 VL with L21M, I78T, N82S, A97N, S99I, F102L, S106A, I112L
notes: mouse hybridoma mAb
B33: 207F8G5 (antibody, V domains shown)
VH: QAYLQQSGAELVRSGASVKMSCKASGFTFTSYNIHWVKQTPGQGLEWIGYISPGNGGSNYNLKFKDKATLTSATSSSTAYMQISSLTSEDSAVYFCATGRGFAYWGQGTLVTVSA
VL: DIVMTQSPSSLTVTPGEKVTMSCKSSQSLFNSGNQKNYLIWYQQKPGQPPKLLIYRASTRDSGVPDRFTGSGSGTDFTLTISNVQAEDLAIYYCQNDYSYPLTFGAGTKLELK
notes: mouse hybridoma mAb
B34: 217D9G2 (antibody, V domains shown)
VH: B33 VH with K63N, S72A, S77T
VL: B33 VL with K24R, I91V
notes: mouse hybridoma mAb
B35: 222B6G5 (antibody, V domains shown)
VH: B33 VH with A2T, F27Y, S58T, N59Y, S72T
VL: B33 VL with I91V
notes: mouse hybridoma mAb; also called 222B6G5-2

Substitutions are numbered along the chain they refer to. Values joined by “and” are separate entries in the source; they are usually repeats but may differ in a detail not shown here. Equal entries are not always repeated.

The target of one experiment is human Claudin18.2 (human). The experiment in a line: cell-based or functional assay.
As to B1, the “CDC % Relative activity” value is 70.5% and the “CDC EC50” value worked out at 2 µg/mL.

B2: the “CDC % Relative activity” value came to 102% and the “CDC EC50” value stood at 1.39 µg/mL.

In the case of B3, the “CDC % Relative activity” value was found to be 161% and the “CDC EC50” value worked out at 0.876 µg/mL.

Regarding B4, the “CDC % Relative activity” value is 787% and the “CDC EC50” value turned out to be 0.179 µg/mL.

Another experiment addresses T1, human Claudin18.2 (human).
T1 construct: also called CLDN18.2
The experiment in a line: cell ELISA, Claudin18.2-expressing HEK293T cells. As for the experimental part:
To determine protein binding EC₅₀ by Cell ELISA, 96-well U-bottom microplates were pre-blocked with blocking buffer (5% MPBS, 1×PBS with 5% skim milk) overnight at 4° C. On the next day, the Claudin18.2-expressing HEK293T stable cell line was suspended at 1.5×10⁶ cells/ml in blocking buffer, added to the plate in 100 μl/well and incubated at room temperature for 1 hour.
Raw data were plotted with GraphPad Prism v6.02 software with four parameters, best-fit value program to analyze the EC₅₀.
With B5, it took 582 pM to reach a half-maximal effect (EC50).

The molecule B6 came in with a 50% effective concentration (EC50) of 651 pM.

The molecule B7 displayed an EC50 of 415 pM.

B8 registered an EC50 of 1020 pM.

B9 returned an EC50 of 570 pM.

The molecule B10 came in with a 50% effective concentration (EC50) of 1770 pM.

B11 came in with an EC50 of 684 pM.

The molecule B12 registered an EC50 of 199 pM.

B13: the EC50 is 562 pM.

The molecule B14 displayed an EC50 of 960 pM.

B15 had an EC50 of 744 pM.

As for B16, the EC50 is approximately 439 pM.

Consider B17, for which the concentration for a half-maximal effect (EC50) was approximately 411 pM.

B18 registered an EC50 of 948 pM.

Take B19: the EC50 is 530 pM.

In turn, B20 yielded an EC50 of approximately 406 pM.

Consider B21, for which the concentration giving a half-maximal response (EC50) came out at 2320 pM.

In turn, B22 showed a 50% effective concentration (EC50) of 728 pM.

As for B23, the response was half-maximal at 738 pM (EC50).

B24 displayed an EC50 of 57800 pM.

The molecule B25 came in with a concentration for a half-maximal effect (EC50) of 1010 pM.

On to B26, for which the EC50 was approximately 413 pM.

B27 came in with an EC50 of 803 pM.

B28: a half-maximal response (EC50) required 732 pM.

For B29, it took 630 pM to reach a half-maximal effect (EC50).

Consider B30, for which it took 1010 pM to reach a half-maximal effect (EC50).

In the case of B31, the concentration giving a half-maximal response (EC50) amounted to 283 pM.

As to B32, the 50% effective concentration (EC50) was 1070 pM.

In turn, B33 showed an EC50 of 822 pM.

Regarding B34, the midpoint of the response, the EC50, lay at 908 pM.

With B35, the EC50 was 1130 pM and 1380 pM.

These data come from patent publication US20220073643A1 (NANJING GENSCRIPT BIOTECH, published 2022).
